The values that follow come from paper PMC8213705.

Experiment [1] concerns the target Microtubule polymerized from MAP-free bovine brain tubulin (GMPCPP- and taxol-stabilized, with biotinylated ends) (bovine) (UniProt Q6B856). The experiment in a line: optical trapping (single-filament interaction forces); pure CB; microtubule turned by 45°, IF moved vertically; 49 filament pairs.
Experiment [2] shares this target. Kind of experiment: optical trapping (single-filament interaction forces); one vimentin IF and one microtubule each held between a pair of streptavidin beads; crossed perpendicularly, IF moved vertically (y-direction) at 0.55 μm/s; pure CB (1 mM EGTA, 2 mM MgCl2, 25 mM PIPES, 60 mM KCl, 2 mM sodium phosphate, pH 7.5, 0.01 mM taxol, oxygen scavenger, 20 mM DTT); 57 filament pairs.

Experiment [3] has the same target. Kind of experiment: optical trapping (single-filament interaction forces); as a1 (perpendicular, vertical movement) in CB with a total of 20 mM magnesium (18 mM MgCl2 added); 36 filament pairs.
Experiment [4] shares this target. The experiment in a line: optical trapping (single-filament interaction forces); as a1 (perpendicular, vertical movement) in CB with 0.1% (w/v) Triton-X 100; 38 filament pairs.
Experiment [5] has the same target. Kind of experiment: optical trapping (single-filament interaction forces); pure CB; perpendicular configuration, IF moved horizontally (x-direction) along the microtubule at 0.55 μm/s; 43 filament pairs.

Sequence of UniProt Q6B856 (Q6B856 whole entry, looked up): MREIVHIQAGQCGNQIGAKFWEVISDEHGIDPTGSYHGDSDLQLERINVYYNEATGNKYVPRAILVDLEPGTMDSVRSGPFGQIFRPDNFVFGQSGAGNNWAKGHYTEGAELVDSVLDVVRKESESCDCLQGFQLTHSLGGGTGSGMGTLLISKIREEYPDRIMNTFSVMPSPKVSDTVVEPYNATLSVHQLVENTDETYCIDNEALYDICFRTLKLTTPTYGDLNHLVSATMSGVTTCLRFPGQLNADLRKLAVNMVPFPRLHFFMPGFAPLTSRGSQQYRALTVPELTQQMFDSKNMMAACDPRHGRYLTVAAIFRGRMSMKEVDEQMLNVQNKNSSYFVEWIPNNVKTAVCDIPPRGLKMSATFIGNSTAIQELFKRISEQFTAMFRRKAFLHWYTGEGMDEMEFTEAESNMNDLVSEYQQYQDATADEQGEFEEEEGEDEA

“Vimentin intermediate filament, assembled from vimentin C328N with two additional glycines and one additional cysteine at the C-terminus (natural protein)”: the effective binding rate r b,eff (interactions larger than 1 pN per unbound time) in experiment [1] worked out at 0.016 s⁻¹; in experiment [2], 0.011 s⁻¹; in experiment [3] it was 0.013 s⁻¹; in experiment [4], 0.0056 s⁻¹; in experiment [5], 0.024 s⁻¹. For the same substance, the probability of binding p IF-MT per pair of vimentin unit-length filament and tubulin dimer in experiment [2] (scale: per pair of vimentin unit-length filament and tubulin dimer) stood at 0.00061.
